Read-outs that look alike come from different tables or passages of the source.
T1: extracellular domain of cyno ILT3 (cynoILT3-ECD) (cynomolgus monkey)
T1 chain: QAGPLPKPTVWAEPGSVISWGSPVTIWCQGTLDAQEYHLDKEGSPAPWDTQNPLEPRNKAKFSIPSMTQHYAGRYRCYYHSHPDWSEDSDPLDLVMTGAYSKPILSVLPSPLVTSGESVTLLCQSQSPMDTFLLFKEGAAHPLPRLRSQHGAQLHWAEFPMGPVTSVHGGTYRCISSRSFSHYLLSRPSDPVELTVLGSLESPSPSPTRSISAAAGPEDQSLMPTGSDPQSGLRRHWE

T2: cynomolgus ILT3 expressed on cells (THP-1 reporter cells transduced with cyno ILT3); cyno monocyte-derived … (cynomolgus monkey)
T2 chain: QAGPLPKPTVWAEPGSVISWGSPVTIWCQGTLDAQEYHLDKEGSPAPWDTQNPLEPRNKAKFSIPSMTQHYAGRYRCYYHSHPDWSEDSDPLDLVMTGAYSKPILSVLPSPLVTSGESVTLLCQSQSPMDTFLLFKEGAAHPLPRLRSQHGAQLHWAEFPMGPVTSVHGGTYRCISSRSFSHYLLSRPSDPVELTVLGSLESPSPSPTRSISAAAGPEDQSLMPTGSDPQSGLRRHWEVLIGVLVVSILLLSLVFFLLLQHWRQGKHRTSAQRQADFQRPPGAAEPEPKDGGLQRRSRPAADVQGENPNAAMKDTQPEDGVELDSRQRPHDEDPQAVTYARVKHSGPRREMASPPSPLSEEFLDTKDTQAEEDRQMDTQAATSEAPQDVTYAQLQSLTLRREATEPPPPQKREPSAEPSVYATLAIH


Key:
[1] = molecular target: ILT3 extracellular domain chimeric receptor on NFAT-GFP reporter cells (human); test: cell-based or functional assay
[2] = molecular target: T3, extracellular domain of human ILT3 (huILT3-ECD) (human, UniProt Q8NHJ6 22-259); test: SPR (Biacore), antibody captured via anti-Fc on CM5 chip, soluble ILT3-ECD injected, 37 C
T3 construct: also called human ILT3-ECD
Procedure: (§1) The binding affinities of anti-ILT3 antibodies to human ILT3 and cyno ILT3 were measured using a Biacore system (GE Healthcare LifeSciences). Briefly, anti-Fc antibody (Sigma-Aldrich) was immobilized on all four flow cells of a CM5 chip using amine coupling reagents (GE Healthcare LifeSciences). Antibodies were captured on flow cells 2, 3, and 4 using flow cell 1 as a reference. Concentrations ranging from 3.3-10 nM of human or cyno ILT3-ECD were injected at a flow rate of 50 μL/min at 37° C. Kinetic data were collected over time and fit using the simultaneous global fit equation to yield affinity constants (KD values) for each antibody.
(§2) The binding affinity of Hz5A7.v5 to human ILT3 and cyno ILT3 was determined using a Biacore system as described herein and compared with the binding affinity of the parental chimeric 5A7 (ch5A7) antibody and humanized 5A7 without any CDR modifications (Hz5A7.v1) (see Table 12).

[3] = molecular target: T1, extracellular domain of cyno ILT3 …; test: as above
Procedure: as §1, §2

Cyno LILRB5 = molecular target: T4, Cyno LILRB5 (Macaca fascicularis, UniProt A0A2K5VIP6); test: FACS on cells expressing cyno LILRB5, labeled anti-mouse Fc secondary antibody
T4 construct: expressed on the cell surface; also called cynomolgus LILRB5
T4 sequence (A0A2K5VIP6 entry or part of it): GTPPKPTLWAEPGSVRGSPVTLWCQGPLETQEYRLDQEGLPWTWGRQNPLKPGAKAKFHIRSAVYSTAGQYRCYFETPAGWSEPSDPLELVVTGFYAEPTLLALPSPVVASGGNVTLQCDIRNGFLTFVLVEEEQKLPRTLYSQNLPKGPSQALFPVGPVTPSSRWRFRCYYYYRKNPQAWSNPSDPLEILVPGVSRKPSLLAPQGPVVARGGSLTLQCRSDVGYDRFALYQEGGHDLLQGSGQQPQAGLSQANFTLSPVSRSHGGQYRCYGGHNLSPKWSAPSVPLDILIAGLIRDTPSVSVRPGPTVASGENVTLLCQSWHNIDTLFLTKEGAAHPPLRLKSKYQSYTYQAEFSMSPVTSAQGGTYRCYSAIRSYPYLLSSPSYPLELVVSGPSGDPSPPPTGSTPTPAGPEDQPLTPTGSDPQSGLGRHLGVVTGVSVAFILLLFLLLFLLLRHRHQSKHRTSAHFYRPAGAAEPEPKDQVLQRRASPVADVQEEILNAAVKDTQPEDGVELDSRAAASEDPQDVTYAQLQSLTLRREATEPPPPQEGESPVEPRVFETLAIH
Procedure: (§3) ELISA assays were used to screen antibodies against human ILT3 and human LILRA1,2,4-6. […] These antibodies were rescreened by FACS for binding to human ILT3 and cyno ILT3 expressed on HEK-293T cells. The antibodies that bound to both human and cyno ILT3 were selected. This subset of antibodies were screened by FACS against human LILRB1-5 (ILT2, ILT4, ILT5, ILT3, and LILRB5, respectively), cyno LILRB5, and human LILRA1,2,4-6. For FACS screening, each antibody was incubated with cells expressing human ILT3, cyno ILT3, one of the LILRA proteins, or one of the LILRB proteins for 30 minutes at 4° C. After washing, the cells were incubated with labeled anti-mouse Fc antibody for 30 minutes at 4° C. After washing, cells were analyzed on a flow cytometer. Antibodies were selected on the criteria of binding to human ILT3, cyno ILT3, no or limited binding to other LILRB proteins, and no or limited binding to LILRA proteins.

human LILRB2 = molecular target: T5, human LILRB2 (human, UniProt Q8N423 22-597); test: FACS on cells expressing human LILRB2, labeled anti-mouse Fc secondary antibody
T5 construct: whole, on cells; also called ILT4
T5 sequence (Q8N423 22-597): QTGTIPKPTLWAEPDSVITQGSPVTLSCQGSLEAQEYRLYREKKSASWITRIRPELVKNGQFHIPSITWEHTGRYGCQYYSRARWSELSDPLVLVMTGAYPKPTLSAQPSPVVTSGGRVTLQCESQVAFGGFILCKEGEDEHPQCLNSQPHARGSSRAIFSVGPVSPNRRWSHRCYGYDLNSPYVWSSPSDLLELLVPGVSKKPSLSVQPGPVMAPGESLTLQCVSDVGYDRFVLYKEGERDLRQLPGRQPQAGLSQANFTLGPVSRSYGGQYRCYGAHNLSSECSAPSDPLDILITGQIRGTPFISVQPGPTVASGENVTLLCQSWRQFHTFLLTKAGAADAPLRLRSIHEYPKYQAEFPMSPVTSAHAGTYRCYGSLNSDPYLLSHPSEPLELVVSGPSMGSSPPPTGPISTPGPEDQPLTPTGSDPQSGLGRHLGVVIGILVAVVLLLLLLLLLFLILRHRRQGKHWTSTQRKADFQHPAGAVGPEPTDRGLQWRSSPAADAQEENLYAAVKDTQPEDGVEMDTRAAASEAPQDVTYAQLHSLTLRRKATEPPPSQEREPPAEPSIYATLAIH
Procedure: as §3

LILRB3 = molecular target: T6, LILRB3 (human, UniProt O75022); test: FACS on cells expressing human LILRB3, labeled anti-mouse Fc secondary antibody
T6 construct: expressed on the cell surface; also called human LILRB3; ILT5
T6 sequence (O75022 24-631 limits assumed): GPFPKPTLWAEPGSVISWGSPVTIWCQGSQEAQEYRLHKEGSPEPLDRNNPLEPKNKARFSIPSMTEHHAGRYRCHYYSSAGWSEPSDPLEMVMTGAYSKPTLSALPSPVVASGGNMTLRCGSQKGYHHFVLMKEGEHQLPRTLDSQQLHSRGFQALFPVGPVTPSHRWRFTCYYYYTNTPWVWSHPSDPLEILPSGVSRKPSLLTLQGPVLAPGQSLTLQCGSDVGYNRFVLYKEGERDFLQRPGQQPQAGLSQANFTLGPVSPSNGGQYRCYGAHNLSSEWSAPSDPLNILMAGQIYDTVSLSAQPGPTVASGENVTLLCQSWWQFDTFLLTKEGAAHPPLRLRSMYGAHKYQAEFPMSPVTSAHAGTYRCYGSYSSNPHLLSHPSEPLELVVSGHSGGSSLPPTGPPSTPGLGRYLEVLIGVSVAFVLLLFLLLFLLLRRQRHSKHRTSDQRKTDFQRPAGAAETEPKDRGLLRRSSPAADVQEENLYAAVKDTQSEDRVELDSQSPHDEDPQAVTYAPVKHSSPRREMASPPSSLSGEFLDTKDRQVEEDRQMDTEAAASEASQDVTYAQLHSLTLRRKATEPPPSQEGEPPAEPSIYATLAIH
Procedure: as §3

LILRB5 = molecular target: T7, LILRB5 (human, UniProt O75023); test: FACS on cells expressing human LILRB5, labeled anti-mouse Fc secondary antibody
T7 construct: expressed on the cell surface; also called human LILRB5; CD85C
T7 sequence (O75023 24-590 limits assumed): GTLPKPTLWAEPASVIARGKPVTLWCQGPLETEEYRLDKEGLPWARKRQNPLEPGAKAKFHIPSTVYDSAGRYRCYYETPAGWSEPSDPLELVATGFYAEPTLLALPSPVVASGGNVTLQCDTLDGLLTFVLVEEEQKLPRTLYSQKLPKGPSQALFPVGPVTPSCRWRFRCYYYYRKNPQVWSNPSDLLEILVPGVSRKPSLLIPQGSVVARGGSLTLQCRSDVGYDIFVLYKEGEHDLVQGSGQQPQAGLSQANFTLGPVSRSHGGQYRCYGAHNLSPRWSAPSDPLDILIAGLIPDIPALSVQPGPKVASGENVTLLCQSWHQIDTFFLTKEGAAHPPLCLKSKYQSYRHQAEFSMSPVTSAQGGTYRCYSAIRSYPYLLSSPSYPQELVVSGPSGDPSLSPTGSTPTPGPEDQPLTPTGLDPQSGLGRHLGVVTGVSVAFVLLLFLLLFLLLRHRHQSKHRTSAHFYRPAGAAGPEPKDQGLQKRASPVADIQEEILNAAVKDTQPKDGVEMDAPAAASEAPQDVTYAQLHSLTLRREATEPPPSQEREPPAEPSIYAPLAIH
Procedure: as §3

human LILRA1 = molecular target: T8, human LILRA1 (human, UniProt O75019 17-489); test: FACS on cells expressing human LILRA1, labeled anti-mouse Fc secondary antibody
T8 construct: whole, on cells
T8 sequence (O75019 17-489): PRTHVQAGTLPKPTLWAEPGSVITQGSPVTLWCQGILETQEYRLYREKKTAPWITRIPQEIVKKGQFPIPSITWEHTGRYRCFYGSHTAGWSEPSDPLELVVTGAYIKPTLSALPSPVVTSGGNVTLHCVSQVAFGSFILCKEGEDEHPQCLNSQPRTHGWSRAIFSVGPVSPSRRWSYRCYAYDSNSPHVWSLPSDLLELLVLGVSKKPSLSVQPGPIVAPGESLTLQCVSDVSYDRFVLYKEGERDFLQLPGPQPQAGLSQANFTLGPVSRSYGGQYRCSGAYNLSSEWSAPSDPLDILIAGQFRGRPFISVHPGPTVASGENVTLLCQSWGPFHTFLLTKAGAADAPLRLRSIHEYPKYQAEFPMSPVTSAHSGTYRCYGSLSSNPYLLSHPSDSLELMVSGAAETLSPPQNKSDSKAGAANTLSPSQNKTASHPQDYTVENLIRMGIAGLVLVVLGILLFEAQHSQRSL
Procedure: as §3

human LILRA2 = molecular target: T9, human LILRA2 (human, UniProt Q8N149 24-483); test: FACS on cells expressing human LILRA2, labeled anti-mouse Fc secondary antibody
T9 construct: whole, on cells
T9 sequence (Q8N149 24-483): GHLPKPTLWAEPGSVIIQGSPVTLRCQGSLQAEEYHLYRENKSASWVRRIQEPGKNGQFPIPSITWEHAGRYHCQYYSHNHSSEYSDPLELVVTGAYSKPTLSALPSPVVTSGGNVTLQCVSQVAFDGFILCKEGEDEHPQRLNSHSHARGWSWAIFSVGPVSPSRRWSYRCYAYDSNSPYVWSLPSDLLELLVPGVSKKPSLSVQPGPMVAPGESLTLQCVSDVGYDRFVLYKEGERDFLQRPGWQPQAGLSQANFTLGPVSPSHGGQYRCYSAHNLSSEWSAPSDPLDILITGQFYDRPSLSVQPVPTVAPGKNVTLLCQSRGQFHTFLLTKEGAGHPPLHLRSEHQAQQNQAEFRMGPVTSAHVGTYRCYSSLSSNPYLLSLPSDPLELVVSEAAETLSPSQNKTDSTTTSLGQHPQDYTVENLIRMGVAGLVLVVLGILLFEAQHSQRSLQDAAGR
Procedure: as §3

human LILRA4 = molecular target: T10, human LILRA4 (human, UniProt P59901 24-499); test: FACS on cells expressing human LILRA4, labeled anti-mouse Fc secondary antibody
T10 construct: whole, on cells
T10 sequence (P59901 24-499): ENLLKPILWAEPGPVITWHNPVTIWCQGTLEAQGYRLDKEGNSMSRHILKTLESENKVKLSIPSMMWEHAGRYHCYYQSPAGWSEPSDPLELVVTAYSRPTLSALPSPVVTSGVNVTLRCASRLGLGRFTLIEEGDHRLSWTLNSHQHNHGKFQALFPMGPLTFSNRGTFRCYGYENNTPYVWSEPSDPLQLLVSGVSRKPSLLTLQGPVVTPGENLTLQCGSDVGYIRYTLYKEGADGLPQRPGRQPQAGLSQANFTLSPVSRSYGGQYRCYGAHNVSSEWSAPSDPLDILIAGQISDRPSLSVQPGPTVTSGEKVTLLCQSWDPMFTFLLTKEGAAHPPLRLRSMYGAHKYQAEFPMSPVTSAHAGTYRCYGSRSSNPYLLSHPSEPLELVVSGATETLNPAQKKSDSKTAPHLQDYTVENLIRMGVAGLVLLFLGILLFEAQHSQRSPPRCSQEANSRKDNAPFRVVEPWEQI
Procedure: as §3

human LILRA5 = molecular target: T11, human LILRA5 (human, UniProt A6NI73 42-299); test: FACS on cells expressing human LILRA5, labeled anti-mouse Fc secondary antibody
T11 construct: whole, on cells
T11 sequence (A6NI73 42-299): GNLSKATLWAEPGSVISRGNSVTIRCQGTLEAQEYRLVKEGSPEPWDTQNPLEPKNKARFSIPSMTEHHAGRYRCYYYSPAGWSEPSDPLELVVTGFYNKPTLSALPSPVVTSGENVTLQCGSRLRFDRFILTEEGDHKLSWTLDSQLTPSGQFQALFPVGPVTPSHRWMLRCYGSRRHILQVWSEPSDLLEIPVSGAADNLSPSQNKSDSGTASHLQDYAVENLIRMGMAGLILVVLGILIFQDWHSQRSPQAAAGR
Procedure: as §3

human LILRA6 = molecular target: T12, human LILRA6 (human, UniProt Q6PI73 24-447, limits assumed); test: FACS on cells expressing human LILRA6, labeled anti-mouse Fc secondary antibody
T12 construct: Read out of the printed 'LILRA1,2,4-6'
T12 sequence (Q6PI73 24-447 limits assumed): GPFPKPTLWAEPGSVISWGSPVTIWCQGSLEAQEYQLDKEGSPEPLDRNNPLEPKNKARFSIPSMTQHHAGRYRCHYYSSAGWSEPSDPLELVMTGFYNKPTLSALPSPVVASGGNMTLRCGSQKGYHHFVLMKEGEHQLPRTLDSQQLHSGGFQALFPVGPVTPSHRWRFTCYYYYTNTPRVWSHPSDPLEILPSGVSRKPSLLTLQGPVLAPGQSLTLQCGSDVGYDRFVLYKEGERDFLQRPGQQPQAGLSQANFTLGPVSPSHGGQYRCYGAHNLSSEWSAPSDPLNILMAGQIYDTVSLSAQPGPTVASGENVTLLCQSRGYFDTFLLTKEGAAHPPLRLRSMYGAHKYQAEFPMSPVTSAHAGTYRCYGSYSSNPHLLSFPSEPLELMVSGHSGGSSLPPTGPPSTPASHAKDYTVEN
Procedure: as §3

[4] = molecular target: T3, extracellular domain of human ILT3 …; test: SPR (Biacore), antibody captured via anti-Fc on CM5 chip, soluble ILT3-ECD injected, 37 C; remark: listed apart in the source
Procedure: as §1

[5] = molecular target: T1, extracellular domain of cyno ILT3 …; test: as above
Procedure: as §1

LILRB4 = molecular target: T13, LILRB4; test: FACS on cells expressing human LILRB4 (ILT3), labeled anti-mouse Fc secondary antibody
T13 construct: the construct expressed on the cells is not described further; also called human ILT3 expressed on cells for the FACS screen; ILT3
T13 sequence (receptor, as listed by the source limits assumed): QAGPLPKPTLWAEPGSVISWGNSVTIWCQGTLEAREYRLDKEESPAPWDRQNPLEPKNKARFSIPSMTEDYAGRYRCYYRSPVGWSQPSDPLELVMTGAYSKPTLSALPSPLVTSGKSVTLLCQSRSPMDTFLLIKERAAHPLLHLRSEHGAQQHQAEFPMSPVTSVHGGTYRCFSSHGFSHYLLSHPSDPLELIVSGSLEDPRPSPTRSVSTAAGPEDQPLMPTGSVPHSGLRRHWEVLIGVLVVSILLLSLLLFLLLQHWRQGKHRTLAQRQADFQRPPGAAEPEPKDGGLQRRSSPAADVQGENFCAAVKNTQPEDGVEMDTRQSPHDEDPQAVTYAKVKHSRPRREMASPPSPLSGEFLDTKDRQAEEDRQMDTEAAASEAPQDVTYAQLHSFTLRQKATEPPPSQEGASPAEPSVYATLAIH
Procedure: as §3

[6] = molecular target: T2, cynomolgus ILT3 expressed on cells …; test: cell-based or functional assay

Kd [2]	koff [2]	kon [2]	Kd [3]	Kd [4]	koff [4]	kon [4]	Kd [5]	koff [5]	kon [5]	EC50 (read off the curve) (LILRB4)	Binder	binding result (Cyno LILRB5)	binding result (human LILRB2)	binding result (LILRB3)	binding result (LILRB5)	binding result (human LILRA1)	binding result (human LILRA2)	binding result (human LILRA4)	binding result (human LILRA5)	binding result (human LILRA6)	further results
570 pM	0.0017 s⁻¹	2.9e+06 M⁻¹ s⁻¹	2400 pM	–	–	–	–	–	–	–	anti-ILT3 antibody ch5A7 (parental chimeric 5A7) (antibody, V domains shown) VH: EVKLVESGGGLVKPGGSLKLSCAASGFTFSSYGMSWVRQTPEKRLEWVATISGGGSYTNYPDSVKGRLTISRDNAKKNLYLEMSSLRSEDTALYYCARREWRMTLYAMDYWGQGTSVTVSS VL: NIVLTQSPASLAVSLGQRATISCRASESVDSYGNSFMHWYQQKPGQAPKLLIYLTSNLESGVPARFSGSGSRTDFTLTIDPVEADDAATYYCQQNNEDPFTFGSGTKLEIK	–	–	–	–	–	–	–	–	–	IC50 (read off the curve) [1]: ~10 pM; koff [3]: 0.018 s⁻¹; kon [3]: 7.5e+06 M⁻¹ s⁻¹
–	–	–	–	< 100 pM	1.8e-07 s⁻¹	7e+06 M⁻¹ s⁻¹	1700 pM	0.024 s⁻¹	1.4e+07 M⁻¹ s⁻¹	~200 pM	anti-ILT3 antibody 48A6 (antibody, V domains shown, Mouse monoclonal antibody from hybridoma) VH: EVQLVESGGDLMKPGGSLKLSCAASGFTFSSYGMSWVRQTPDKRLEWVATISSGGTYTFYPDSVKGRFTISRDNAKNTLYLQMSSLKSEDTAMYYCARRGWLLHYYAMDYWGQGTSVTVSS VL: NIVLTQSPASLAVSLGQRATISCRPSESVDSFGNSFMHWFQQKPGQPPKLLIYLSSKLESGVPARFSGSGSRTDFTLTIDPVEADDAATYYCQQHNEDPFTFGSGTKLEIK	no binding (tested: log [Ab] about -7.2 M (about 6e-8 M))	no binding (tested: log [Ab] about -7.2 M (about 6e-8 M))	binds	no binding (tested: log [Ab] about -7.2 M (about 6e-8 M))	no binding (tested: log [Ab] about -7.2 M (about 6e-8 M))	no binding (tested: log [Ab] about -7.2 M (about 6e-8 M))	no binding (tested: log [Ab] about -7.2 M (about 6e-8 M))	no binding (tested: log [Ab] about -7.2 M (about 6e-8 M))	no binding (tested: log [Ab] about -7.2 M (about 6e-8 M))	–
–	–	–	–	28 pM	0.00011 s⁻¹	3.8e+06 M⁻¹ s⁻¹	660 pM	0.0022 s⁻¹	3.3e+06 M⁻¹ s⁻¹	~300 pM	anti-ILT3 antibody 5A7 (antibody, V domains shown, Mouse monoclonal antibody from hybridoma) VH: EVKLVESGGGLVKPGGSLKLSCAASGFTFSSYGMSWVRQTPEKRLEWVATISGGGSYTNYPDSVKGRLTISRDNAKKNLYLEMSSLRSEDTALYYCARREWRMTLYAMDYWGQGTSVTVSS VL: NIVLTQSPASLAVSLGQRATISCRASESVDSYGNSFMHWYQQKPGQAPKLLIYLTSNLESGVPARFSGSGSRTDFTLTIDPVEADDAATYYCQQNNEDPFTFGSGTKLEIK	no binding (tested: log [Ab] about -7.2 M (about 6e-8 M))	no binding (tested: log [Ab] about -7.2 M (about 6e-8 M))	no binding (tested: log [Ab] about -7.2 M (about 6e-8 M))	no binding (tested: log [Ab] about -7.2 M (about 6e-8 M))	no binding (tested: log [Ab] about -7.2 M (about 6e-8 M))	no binding (tested: log [Ab] about -7.2 M (about 6e-8 M))	no binding (tested: log [Ab] about -7.2 M (about 6e-8 M))	no binding (tested: log [Ab] about -7.2 M (about 6e-8 M))	no binding (tested: log [Ab] about -7.2 M (about 6e-8 M))	–
–	–	–	–	240 pM	8e-05 s⁻¹	330000 M⁻¹ s⁻¹	9400 pM	0.0055 s⁻¹	590000 M⁻¹ s⁻¹	~400 pM	anti-ILT3 antibody 53F10 (antibody, V domains shown, Mouse monoclonal antibody from hybridoma) VH: EVQVVESGGGLVKPGGSLKLSCAASGFTFSDYGMHWVRQAPEKGLEWVAYISTGIITVYYADTVKGRFTMSRDNAKNTLFLQMTSLRSEDTAIYYCARADGRGAMDYWGQGTSVIVSS VL: DIQMTQTTSSLSASLGDRVTISCRASQDISNFLNWYQQKPDGTVTLLIYYTSRLHSGVPSRFSGSGSGTDYSLTISNLEQEDFATYFCQQGNTLPWTFGGGTKLEIK	no binding (tested: log [Ab] about -7.2 M (about 6e-8 M))	no binding (tested: log [Ab] about -7.2 M (about 6e-8 M))	no binding (tested: log [Ab] about -7.2 M (about 6e-8 M))	no binding (tested: log [Ab] about -7.2 M (about 6e-8 M))	no binding (tested: log [Ab] about -7.2 M (about 6e-8 M))	no binding (tested: log [Ab] about -7.2 M (about 6e-8 M))	no binding (tested: log [Ab] about -7.2 M (about 6e-8 M))	no binding (tested: log [Ab] about -7.2 M (about 6e-8 M))	no binding (tested: log [Ab] about -7.2 M (about 6e-8 M))	–
280 pM	0.00081 s⁻¹	2.8e+06 M⁻¹ s⁻¹	700 pM	–	–	–	–	–	–	–	anti-ILT3 antibody Hz5A7.v5 (antibody, human IgG1, kappa, N297G, V domains shown, Humanized 5A7 variant) VH: EVQLVESGGGLVQPGGSLRLSCAASGFTFSSYGMSWVRQAPGKGLEWVATISGGGSYTNYPDSVKGRFTISRDNAKNSLYLQMNSLRAEDTAVYYCARREWRYTLYAMDYWGQGTTVTVSS VL: DIQLTQSPSFLSASVGDRVTITCRASESVESYGSSFMHWYQQKPGKAPKLLIYLTSNLESGVPSRFSGSGSGTEFTLTISSLQPEDFATYYCQQNNEDPFTFGQGTKLEIKR	–	–	–	–	–	–	–	–	–	EC50 (read off the curve) [6]: ~200 pM; koff [3]: 0.0071 s⁻¹; kon [3]: 1.1e+07 M⁻¹ s⁻¹
